Consider three molecules from patent publication US20030185836A1 (published 2003).

First the molecules themselves.
B1: S30 (minor sporozoite protein, proteolytic degradation product of S45) (other)
chain: TGEDAEGSQDSSGTEASGSQGSEEEGSEDDGQTSAASQPTTPAQSEGATTETIEATPKEECGTSFVMWFGEGTPAATLKCGAYTIVYAPIKDQTDPAPRYISGEVTSVTFEKSDNTVKIKVNGQDFSTLSANSSSPTENGGSAGQASSR
B2: S15 glycoprotein (15 kDa sporozoite surface protein of Cryptosporidium parvum) (other)
chain: SEETSEAAATVDLFAFTLDGGKRIEVAVPNVEDASKRDKYSLVADDKPFYTGANSGTTNGVYRLNENGDLVDKDNTVLLKDAG
modifications: glycosylated (labelled by H. pomatia lectin); glycosyl phosphatidyl inositol anchor predicted at the C-terminal glycine (residue 305 of S60)
notes: Native protein from sporozoites/oocysts, on blots after SDS-PAGE; also called 15 kDa protein band; 15 kDa protein
B3: S45 glycoprotein (45 kDa sporozoite surface protein of Cryptosporidium parvum) (other)
chain: DVPVEGSSSSSSSSSSSSSSSSSSSSSTSTVAPANKARTGEDAEGSQDSSGTEASGSQGSEEEGSEDDGQTSAASQPTTPAQSEGATTETIEATPKEECGTSFVMWFGEGTPAATLKCGAYTIVYAPIKDQTDPAPRYISGEVTSVTFEKSDNTVKIKVNGQDFSTLSANSSSPTENGGSAGQASSR
modifications: long stretch of serine residues after DVPVEG glycosylated with single residues of alpha N-acetyl galactosamine (first serine only partially); residues 180, 186 and 188 (S60 numbering) thought to be modified lysines
notes: Native protein from sporozoites/oocysts; also called 45 kDa protein; 45 kDa band

Test [1] addresses T1, Canavalia ensiformis lectin (Con A) (Canavalia ensiformis, UniProt P02866 30-281, limits assumed, biotin-conjugated). In words: lectin Western blot of Triton X-114 fractionated sporozoite proteins. On the technique in general: Immunoblotting shows a protein as a band on a membrane.
Experimental: Excysted oocysts or purified sporozoites were resuspended to 1×10⁹ cells/ml in ice-cold TBS (10 mM Tris, pH 8.0, 140 mM NaCl) containing a protease inhibitor mixture of 50 μM leupeptin (Sigma),.10 μM E-64 (Sigma), 1 mM phenylmethylsulfonylfluoride (Sigma). […] Lysates were then centrifuged (100,000×g for 1 h at 4° C.) and the supernatant warmed for 3 minutes to 37° C. to induce phase separation. The water phase and the membrane protein enriched detergent phase were separated by centrifugation and each phase reextracted once. The phases were adjusted to the original volume and proteins precipitated by adding 1/10 volume of ice cold 100% (w/v) trichloroacetic acid. After 30 minutes precipitates were pelleted by centrifugation and washed twice in 70% (v/v) ice-cold ethanol and once with acetone. Pellets were then air dried and redissolved in 1-D or 2-D sample buffer for electrophoretic analysis.
For lectin analysis, membranes blocked with 1% (w/v) BSA in PBS were incubated for 1 h with biotin-conjugated lectins (Sigma) in BSA/PBS and a further 3 h with 1:10,000 alkaline-phosphatase-conjugated ExtrAvidin in PBS. […] Membranes were developed in 1 M diethanolamine, pH 9.8, containing 1 mM MgCl₂, 0.5 mM 5-bromo-4-chloro-3-indolyl phosphate and 0.5 mM nitroblue tetrazolium.
Test [2] addresses T1, Canavalia ensiformis lectin (Con A). In words: lectin blot after SDS-PAGE of sporozoite surface proteins.
Test [3] deals with B2. Description: co-fractionation: Triton X-114 phase separation, isoelectric focusing.

In the case of B1, in test [1], the binding result is recorded as “no binding”.
B2: the binding result in test [2] is “no binding”.
With B3, the binding result is “binds” in test [3] and “no binding” in test [2].
